Measurements reported in the supplement of paper PMC10567573.

B1: C10orf62 (parent)
chain: MLWVQRKRRRKETSECPSDKDKSP
B2: PPFIA4 (parent)
chain: VMTLPSDLRKHRRKLLSPVSREEN

Variants of: B1
Experiment: protein stability index of a GFP-peptide fusion (GPS, HEK-293T) (PSI 1-6); higher = more stable
Settings: c terminus: a fixed tail appended
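Further: lentivirally expressed fusions sorted by FACS into six bins by GFP to DsRed ratio, PSI derived from sequencing read proportions per bin multiplied by bin number.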

Protein stability index: each site, then its substitutions
P17: S 2.92; T 3.08; Q 3.36; I 2.96; R 2.52; C 2.74; A 4.1; D 2.6; W 2.86; F 2.51; Y 2.27; L 2.98
D21: Q 2.87; H 2.28; A 2.64; P 2.62; M 2.5; N 3.44; K 4.07; R 1.92; G 3.36; I 2.32; Y 2.32
W3: Q 3.13; R 4.46; C 4.07; I 3.25; A 4.3; M 3.46; L 3.73; Y 2.77; S 4.87; F 3.25; N 4.66; K 4.18; P 5.09
R6: W 3.21; I 3.21; L 3.11; G 3.54; M 3.49; C 2.27; Q 3.27; V 2.95; F 3.11; E 4.01
C16: L 2.53; W 2.16; N 3.16; S 4.01; E 3.25; Y 3.1; G 2.43; V 2.81; R 3.35; I 2.95
D19: L 1.98; V 2.63; Q 2.65; M 3.44; E 2.46; P 2.61; A 2.77; I 2.84
M1: A 2.93; T 3.65; N 4.55; Y 3.4; G 4; I 1.24; L 2.3; R 2.59; F 2.98
S23: E 2.48; M 3.39; L 3.38; N 3.29; F 2.5; C 3.15; W 1.92; D 3.49; Q 3.42; K 2.27; R 2.88; P 2.88; H 2.77; Y 2.69; G 3.25
K11: L 3.55; H 2.72; I 2.9; W 2.45; A 4.09; N 3.11; Q 3.44; R 3.39; G 2.9
R8: S 3.91; L 2.51; G 4.16; I 3.36; E 5.08; H 3.89; C 3.34; A 3.9; M 3.74; F 3.05; K 3.15; D 3.52; Q 4.1
V4: I 2.87; E 4.56; T 2.73; W 2.57; G 3.89; A 4.6; K 3.56; M 2.52; F 2.94; P 3.11
P24: H 3.31; V 2.95; Y 2.57; Q 3.54; F 2.46; K 2.16; I 2.35; N 2.8; D 3.28; A 3.72; T 2.98; L 2.37; R 3.31; S 3.11; C 3.2
E12: T 2.92; W 2.5; Y 2.68; N 2.67; H 3.16; M 2.67; Q 3.37; F 2.5; L 3.02; K 3.44; V 2.93; C 2.7; P 3.67
S18: W 2.63; N 2.83; Q 3.42; I 2.41; R 3.21; Y 2.43; M 2.94; D 3.07; G 3.58
K22: N 3.47; C 2.32; G 2.97; M 3.06; T 3.48; S 3.18; L 3.2; P 3.58; D 2.48; A 4.4; E 2.83
R9: P 2.26; M 3.63; I 3.4; V 3.18; Y 3.75; C 2.81; E 3.71; A 3.71; K 2.73
L2: W 2.53; M 2.89; D 4.88; T 3.31; F 1.33; H 3.52; I 3.21; V 2.6; N 3.93
T13: I 2.52; E 2.99; Q 2.58; P 3.04; Y 2.07; K 3.55; L 3.4; V 4.26; D 2.3; G 2.15; S 2.25; H 3.39
E15: L 2.84; N 3.52; A 3.71; T 2.95; W 2.15; I 1.92; K 2.74; Q 3.56; V 3.29; R 2.54; F 3; D 3.26; S 2.96
K7: Y 1.57; H 3.69; I 1.95; F 2.73; A 3.08; T 3.15; P 3.97; S 3.85
Q5: Y 2.8; P 3.11; D 4.23; L 2.4; M 2.62; A 3.98; C 2.61; N 3.44
K20: A 2.74; N 4.29; T 3.35; M 3.38; H 2.97; G 3.29; S 2.73; V 3.27; I 3.7; F 2.12; C 3.52
S14: Y 2.44; R 2.55; G 3.1; W 2.94; I 2.74; D 3.12; V 3.14; T 2.55
R10: M 3.13; E 3.86; K 3.41; Y 2.78; Q 3.12; L 2.78; H 3.45; N 3.78

Variants of: B2
Experiment: as above
Settings: c terminus: a fixed tail appended

Protein stability index, by site and new letter:
E22: G 3.16; W 2.23; N 3.27
P5: H 2.67; D 4.37; L 2.48; W 2.25
L16: W 3.09; M 4.07; D 4.08; K 4.03
P18: R 3.08; A 4.42
K10: I 3.25; M 3.46; C 3.52
L15: A 4.08; K 3.94; W 3.5; T 3.9; F 4.27
M2: W 3.72; R 4.04; Q 3.06
N24: H 3.88; M 3.07; L 2.94; C 3.33
L4: S 3.94; E 4.37; A 4.27; Y 3.45; I 3.42
S6: M 3.4; E 3.85; D 4.02; V 2.4; I 3.04
V19: T 4.18; Y 2.94; K 3.67
D7: E 3.46; Q 3.3; F 2.57; T 3.24; W 2.92; I 2.72
E23: V 3.1; K 3.72; G 2.94
H11: M 3.49; F 3.46; R 3.99; S 3.75; Q 2.93; N 4.02; D 4.37
R21: N 3.85; F 3.54; L 3.84
S20: N 3.91; T 3.75
L8: Q 4.05; C 4.04; K 4.14; D 4.28
R9: P 4.44
T3: Y 2.5; G 3.99; R 3.07
S17: H 3.93; V 3.53
V1: N 3.62; A 3.93; W 2.66
K14: F 3.54
R13: W 2.92; Q 4.27; K 3.5
R12: K 3.81
